In one experiment the target is Active MMP-2. In words: enzyme inhibition (fluorogenic substrate, Ki by the Morrison equation); Active MMP-2 (0.76 nM) with FLAG-TIMP-1 or FLAG-T2G (0.17 to 13.5 nM), 2 h at 27 C; 50 mM Tris-HCl pH 7.5, 150 mM NaCl, 5 mM CaCl2; substrate MCA-Pro-Leu-Gly-Leu-Dpa-Ala-Arg-NH2.
The target of experiment [1] is Endogenous LRP-1 of mouse cortical neurons (alpha-chain and beta-chain) (mouse (endogenous in primary cortical neurons)).
Experiment [2] concerns the target HA-tagged mini LRP-II (LRP-1 mini-receptor with ligand-binding domain II).
Experiment [3] addresses HA-tagged mini LRP-IV (LRP-1 mini-receptor with ligand-binding domain IV).
Experiment [4] deals with Endogenous LRP-1 of mouse cortical neurons (alpha-chain and beta-chain) (mouse (endogenous in primary cortical neurons)). The source holds these as a separate data set.
Experiment [5] concerns the target Recombinant human LRP-1 Fc-tagged mini-domain IV (human). In words: SPR; Fc-DII or Fc-DIV captured by anti-Fc antibody immobilised on a CMD500m chip (around 8 fmol/mm^2); TIMP-1 or EGF 5 to 80 nM injected sequentially (single-cycle kinetics, 2 min at 50 ul/min); 25 C; HBS (50 mM HEPES-NaOH pH 7.4, 150 mM NaCl, 0.005% Tween-20); corrected for Fc-coated flow cell and blank run; 1:1 titration kinetic model; Biacore T200. In general terms: In SPR one partner is held on a chip, and binding of the other changes the refractive index at the surface.

The target of experiment [6] is Recombinant human LRP-1 Fc-tagged mini-domain II (human). The experiment is described as above.

These results are taken from publication PMC4116228.

One may read the Ki as a measure of affinity in units of concentration, obtained from inhibition or displacement. Low readings indicate a stronger hold on the target, high ones a looser hold on the target. Substance “FLAG-tagged full-length TIMP-1 T2G mutant (from UniProt P01033 24-207) (natural protein)” gave a Ki with Active MMP-2 of 18.9 nM.
Regarding “FLAG-tagged wild type TIMP-1 (from UniProt P01033 24-207) (natural protein)”, the inhibition constant (Ki) with Active MMP-2 was found to be 0.09 nM. Further, the growth cone volume of cortical neurons after 30 min with 10 nM TIMP-1; the increase is prevented by RAP or blocking LRP-1 antibodies in experiment [1] is 2.8 fold.
Regarding “Fluorescent TIMP-1 (eFluor-conjugated recombinant TIMP-1) (from UniProt P01033 24-207) (natural protein)”, the internalisation of surface-bound fluo-TIMP-1 (10 nM) by DII-overexpressing CHO cells after 2 h at 37 C (pronase-resistant fluorescence); significantly impeded by 500 nM RAP in experiment [2] was determined as 50%. This substance returned an internalisation of surface-bound fluo-TIMP-1 (10 nM) by DIV-overexpressing CHO cells after 2 h at 37 C (pronase-resistant fluorescence); significantly impeded by 500 nM RAP in experiment [3] of 50%. This substance gave an inhibition by 500 nM RAP of the internalisation of fluo-TIMP-1 by cortical neurons (37 C, pronase-resistant fluorescence) in experiment [4] of 2 fold.
The Kd is a measure of binding affinity in units of concentration. What is called koff is the rate constant with which the complex falls apart. The kon is a measure of how fast the partners come together. In the case of “Human recombinant TIMP-1 (tissue inhibitor of metalloproteinases-1) (from UniProt P01033 24-207) (natural protein)”, in experiment [5], the equilibrium dissociation constant (Kd) was found to be 52.4 nM, the koff is 0.0135 s⁻¹ and the kon was 255000 M⁻¹ s⁻¹. In addition, in experiment [6], the Kd was found to be 11.2 nM, the koff was 0.021 s⁻¹ and the kon was determined as 1.87e+06 M⁻¹ s⁻¹.
